Measured values from patent US20260166140A1, “Combinations Involving Epidermal Growth Factor Receptor Tyrosine Kinase Inhibitors For the Treatment of Cancer” (AstraZeneca AB, priority 2022, published 2026).

Legend:
[1] = target: T1, HER3 (UniProt P21860 20-643, limits assumed); experiment: ELISA: antigen coated at 1 ug/mL, antibody dilution series, goat anti-human Fab-HRP, A450; panel Human HER3
T1 construct: also called EGFR HER family protein HER3

[2] = target: T2, HER2 (UniProt P04626 23-652, limits assumed); experiment: ELISA: antigen coated at 1 ug/mL, antibody dilution series, goat anti-human Fab-HRP, A450; panel Human HER2
T2 construct: also called EGFR HER family protein HER2

[3] = target: T3, Human cMET (recombinant, soluble monomeric) (human, UniProt P08581 25-932); experiment: ELISA: antigen coated at 1 ug/mL, antibody dilution series, goat anti-human Fab-HRP, A450; panel Human cMET
T3 construct: in the HTRF assay it is called the human cMET receptor; also called His-tagged cMET antigen
T3 sequence (P08581 25-932): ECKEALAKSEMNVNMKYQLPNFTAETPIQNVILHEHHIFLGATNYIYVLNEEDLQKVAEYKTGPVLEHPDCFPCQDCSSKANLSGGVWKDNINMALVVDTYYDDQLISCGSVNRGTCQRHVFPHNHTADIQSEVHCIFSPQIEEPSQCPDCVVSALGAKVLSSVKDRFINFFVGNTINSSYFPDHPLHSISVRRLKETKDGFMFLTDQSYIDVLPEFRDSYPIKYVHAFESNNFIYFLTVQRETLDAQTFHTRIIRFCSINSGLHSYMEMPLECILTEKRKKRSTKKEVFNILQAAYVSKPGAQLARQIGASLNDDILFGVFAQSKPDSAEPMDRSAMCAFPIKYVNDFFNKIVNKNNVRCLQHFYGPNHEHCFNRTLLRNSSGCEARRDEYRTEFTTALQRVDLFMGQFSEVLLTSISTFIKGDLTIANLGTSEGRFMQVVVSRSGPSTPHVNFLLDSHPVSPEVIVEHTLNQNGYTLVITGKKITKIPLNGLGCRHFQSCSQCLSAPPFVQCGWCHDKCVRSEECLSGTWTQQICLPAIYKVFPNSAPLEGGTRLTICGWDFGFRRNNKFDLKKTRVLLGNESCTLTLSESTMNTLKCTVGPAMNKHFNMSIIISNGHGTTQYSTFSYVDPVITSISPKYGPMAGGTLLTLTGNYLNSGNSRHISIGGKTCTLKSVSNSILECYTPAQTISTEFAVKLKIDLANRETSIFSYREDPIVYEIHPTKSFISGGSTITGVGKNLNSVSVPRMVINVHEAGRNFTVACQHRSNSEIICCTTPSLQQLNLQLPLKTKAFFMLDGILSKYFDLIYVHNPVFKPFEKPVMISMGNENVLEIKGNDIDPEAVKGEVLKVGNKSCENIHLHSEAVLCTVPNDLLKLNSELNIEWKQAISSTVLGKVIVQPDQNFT

[4] = target: T4, Semaphorin 3a (UniProt Q14563 21-771, limits assumed); experiment: ELISA: antigen coated at 1 ug/mL, antibody dilution series, goat anti-human Fab-HRP, A450; panel Human Sema3a
T4 construct: also called Sema 3a
T4 sequence (looked up): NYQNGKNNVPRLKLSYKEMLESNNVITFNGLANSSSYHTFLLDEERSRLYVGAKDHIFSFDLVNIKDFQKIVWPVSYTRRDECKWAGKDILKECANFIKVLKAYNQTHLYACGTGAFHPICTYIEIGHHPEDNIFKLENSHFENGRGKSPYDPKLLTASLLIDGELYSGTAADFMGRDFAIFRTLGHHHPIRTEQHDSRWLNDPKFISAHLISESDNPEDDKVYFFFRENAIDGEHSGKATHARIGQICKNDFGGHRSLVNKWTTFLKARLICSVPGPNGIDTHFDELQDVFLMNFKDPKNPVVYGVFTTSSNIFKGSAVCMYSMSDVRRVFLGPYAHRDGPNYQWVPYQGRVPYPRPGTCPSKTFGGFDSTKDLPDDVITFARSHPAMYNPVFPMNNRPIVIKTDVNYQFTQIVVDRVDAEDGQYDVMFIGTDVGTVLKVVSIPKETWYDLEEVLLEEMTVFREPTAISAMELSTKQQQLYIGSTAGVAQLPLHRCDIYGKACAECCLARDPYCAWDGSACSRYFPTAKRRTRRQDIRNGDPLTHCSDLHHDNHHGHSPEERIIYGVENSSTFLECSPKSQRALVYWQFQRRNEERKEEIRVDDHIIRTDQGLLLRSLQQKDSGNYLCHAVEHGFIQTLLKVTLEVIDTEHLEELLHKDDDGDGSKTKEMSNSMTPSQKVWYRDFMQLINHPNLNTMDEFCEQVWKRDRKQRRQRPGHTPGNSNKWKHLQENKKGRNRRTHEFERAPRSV

[5] = target: T5, Mouse EGFR (recombinant, soluble monomeric) (mouse, UniProt Q01279 25-647); experiment: SPR, Biacore T200, antibody captured on anti-human IgG, soluble monomeric antigen as analyte, 25 C
T5 construct: also called murine EGFR

[6] = target: T6, Human EGFR (recombinant, soluble monomeric) (human, UniProt P00533 25-645); experiment: as above
T6 construct: also called EGFR antigen

[7] = target: T7, Cynomolgus monkey EGFR (recombinant, soluble monomeric) (cynomolgus monkey, UniProt P55245 25-645 (rhesus entry)); experiment: as above
T7 construct: also called cyno EGFR

[8] = target: Mouse cMET (recombinant) (mouse, UniProt P16056 25-929, limits assumed); experiment: ELISA: antigen coated at 1 ug/mL, antibody dilution series, goat anti-human Fab-HRP, A450; panel Mouse cMET
Chain of Mouse cMET (recombinant) (P16056 25-929 limits assumed): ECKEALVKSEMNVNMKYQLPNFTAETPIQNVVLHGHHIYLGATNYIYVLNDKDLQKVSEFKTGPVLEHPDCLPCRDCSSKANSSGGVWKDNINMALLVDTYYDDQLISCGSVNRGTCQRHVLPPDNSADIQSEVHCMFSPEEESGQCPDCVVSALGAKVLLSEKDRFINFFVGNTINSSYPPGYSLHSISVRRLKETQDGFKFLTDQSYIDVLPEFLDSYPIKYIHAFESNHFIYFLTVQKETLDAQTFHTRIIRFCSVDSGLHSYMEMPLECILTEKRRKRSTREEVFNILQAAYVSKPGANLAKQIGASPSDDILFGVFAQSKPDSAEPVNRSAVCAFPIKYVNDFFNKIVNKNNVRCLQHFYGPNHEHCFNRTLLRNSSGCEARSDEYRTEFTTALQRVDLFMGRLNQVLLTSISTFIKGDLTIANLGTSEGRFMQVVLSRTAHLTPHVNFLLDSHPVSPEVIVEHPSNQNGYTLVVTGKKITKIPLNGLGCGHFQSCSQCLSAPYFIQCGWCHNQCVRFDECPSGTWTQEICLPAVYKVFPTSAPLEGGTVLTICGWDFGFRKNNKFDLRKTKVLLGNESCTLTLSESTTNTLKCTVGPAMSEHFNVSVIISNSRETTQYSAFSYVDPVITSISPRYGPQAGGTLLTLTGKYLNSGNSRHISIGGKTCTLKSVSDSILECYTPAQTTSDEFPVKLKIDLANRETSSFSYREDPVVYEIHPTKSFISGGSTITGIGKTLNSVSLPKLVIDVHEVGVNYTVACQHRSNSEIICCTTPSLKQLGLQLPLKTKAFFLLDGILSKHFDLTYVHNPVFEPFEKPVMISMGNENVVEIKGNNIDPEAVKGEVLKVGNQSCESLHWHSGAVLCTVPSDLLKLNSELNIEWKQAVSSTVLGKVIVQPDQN

[9] = target: T8, Cynomolgus monkey cMET (recombinant, soluble monomeric) (cynomolgus monkey, UniProt A0M8R7 25-932 (Papio anubis entry)); experiment: ELISA: antigen coated at 1 ug/mL, antibody dilution series, goat anti-human Fab-HRP, A450; panel Cynomolgus cMET
T8 construct: also called cyno cMET
T8 sequence (A0M8R7 25-932 S170N/I621T): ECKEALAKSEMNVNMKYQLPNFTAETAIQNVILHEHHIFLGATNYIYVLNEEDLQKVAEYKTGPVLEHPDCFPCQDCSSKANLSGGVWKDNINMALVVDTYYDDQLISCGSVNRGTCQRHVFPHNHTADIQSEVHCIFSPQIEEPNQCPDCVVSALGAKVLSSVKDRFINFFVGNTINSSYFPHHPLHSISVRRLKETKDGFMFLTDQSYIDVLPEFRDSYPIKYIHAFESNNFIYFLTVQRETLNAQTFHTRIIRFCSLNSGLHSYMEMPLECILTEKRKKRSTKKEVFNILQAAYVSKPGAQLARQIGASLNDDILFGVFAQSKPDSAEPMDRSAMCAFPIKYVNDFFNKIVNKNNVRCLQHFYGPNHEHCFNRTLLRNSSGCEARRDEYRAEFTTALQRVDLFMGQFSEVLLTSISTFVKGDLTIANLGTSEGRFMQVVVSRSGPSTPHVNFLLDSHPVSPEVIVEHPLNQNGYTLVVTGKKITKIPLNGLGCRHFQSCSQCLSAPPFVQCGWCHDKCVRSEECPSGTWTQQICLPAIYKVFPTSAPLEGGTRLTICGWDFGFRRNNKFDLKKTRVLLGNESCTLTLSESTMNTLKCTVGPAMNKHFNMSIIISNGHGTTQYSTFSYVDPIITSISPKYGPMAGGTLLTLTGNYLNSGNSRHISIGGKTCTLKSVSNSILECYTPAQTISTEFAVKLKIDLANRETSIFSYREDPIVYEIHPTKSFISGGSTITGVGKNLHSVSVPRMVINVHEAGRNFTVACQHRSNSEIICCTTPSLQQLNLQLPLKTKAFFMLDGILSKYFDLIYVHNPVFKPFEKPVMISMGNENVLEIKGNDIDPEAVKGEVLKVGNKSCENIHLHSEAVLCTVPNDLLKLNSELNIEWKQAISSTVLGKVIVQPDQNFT

[10] = target: Ron (CD136) (UniProt Q04912 25-957, limits assumed); experiment: ELISA: antigen coated at 1 ug/mL, antibody dilution series, goat anti-human Fab-HRP, A450; panel Human Ron (CD136)
[11] = target: T9, HER4 (UniProt Q15303 26-649, limits assumed); experiment: ELISA: antigen coated at 1 ug/mL, antibody dilution series, goat anti-human Fab-HRP, A450; panel Human HER4
T9 construct: also called EGFR HER family protein HER4
T9 sequence (looked up): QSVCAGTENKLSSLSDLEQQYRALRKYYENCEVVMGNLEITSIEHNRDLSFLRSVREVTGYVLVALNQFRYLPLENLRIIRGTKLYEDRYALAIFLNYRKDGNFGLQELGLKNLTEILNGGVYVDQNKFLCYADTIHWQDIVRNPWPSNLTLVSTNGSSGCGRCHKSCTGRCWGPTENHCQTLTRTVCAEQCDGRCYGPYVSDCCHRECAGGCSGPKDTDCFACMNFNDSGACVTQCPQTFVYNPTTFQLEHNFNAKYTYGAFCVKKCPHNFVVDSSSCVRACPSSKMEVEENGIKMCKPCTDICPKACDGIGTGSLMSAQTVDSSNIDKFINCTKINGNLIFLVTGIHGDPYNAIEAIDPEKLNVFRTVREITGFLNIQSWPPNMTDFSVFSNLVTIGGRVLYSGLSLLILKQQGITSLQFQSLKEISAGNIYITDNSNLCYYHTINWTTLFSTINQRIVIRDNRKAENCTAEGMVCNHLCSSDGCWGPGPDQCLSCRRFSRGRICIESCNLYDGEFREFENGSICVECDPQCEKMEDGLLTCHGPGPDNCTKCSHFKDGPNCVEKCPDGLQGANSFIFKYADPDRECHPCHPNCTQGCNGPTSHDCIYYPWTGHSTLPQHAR

[12] = target: T3, Human cMET (recombinant, soluble …); experiment: Octet biolayer interferometry, antigen capture format: His-tagged human cMET on NI-NTA sensors, then antibody (66 nM), then human EGFR (500 nM)
[13] = target: T5, Mouse EGFR (recombinant, soluble …); experiment: ELISA: antigen coated at 1 ug/mL, antibody dilution series, goat anti-human Fab-HRP, A450; panel Mouse EGFR
[14] = target: T8, Cynomolgus monkey cMET (recombinant, …); experiment: SPR, Biacore T200, antibody captured on anti-human IgG, soluble monomeric antigen as analyte, 25 C
[15] = target: T3, Human cMET (recombinant, soluble …); experiment: as above
[16] = target: T6, Human EGFR (recombinant, soluble …); experiment: Octet biolayer interferometry, antigen capture format: His-tagged human cMET on NI-NTA sensors, then antibody (66 nM), then human EGFR (500 nM)
[17] = target: T7, Cynomolgus monkey EGFR (recombinant, …); experiment: ELISA: antigen coated at 1 ug/mL, antibody dilution series, goat anti-human Fab-HRP, A450; panel Cynomolgus EGFR

B1: RAA22 IgG (antibody, V domains shown)
VH: QVQLVQSGAEVKKPGSSVKVSCKASGGTFSDNDFSWVRQAPGQGLEWMGAIVAVFRTETYAQKFQDRVKITADISTRTTYMELSSLRSEDTAVYYCARRLMSAISGPGAPLLMWGQGTLVTVSS
VL: QSALTQPRSVSGSPGQSVTISCTGTSSDVGGYNYVSWYQQHPGKAPKLMIYDVSKRPSGVPDRFSGSKSGNTASLTISGLQAEDEADYYCSSYTSSDTLEIFGGGTKLTVL
B1: no binding (tested: 10 ug/ml) [1]; no binding (tested: 10 ug/ml) [2]; no binding (tested: 10 ug/ml) [3]. For the same binder, the binding result [4] was “no binding (tested: 10 ug/ml)”, the Kd [5] was 488 nM and the koff [5] was 0.019 s⁻¹. The kon [5] was 40300 M⁻¹ s⁻¹, the Kd [6] was 46.6 nM and the koff [6] was 0.00206 s⁻¹. The kon [6] was 44100 M⁻¹ s⁻¹, the Kd [7] was 170 nM and the koff [7] was 0.00601 s⁻¹. The kon [7] was 35400 M⁻¹ s⁻¹, the binding result [8] was “no binding (tested: 10 ug/ml)” and the binding result [9] was “no binding (tested: 10 ug/ml)”. B1: no binding (tested: 10 ug/ml) [10]; no binding (tested: 10 ug/ml) [11].

B2: QD6 IgG (antibody, V domains shown)
VH: QVQLVQSGAEVKKPGSSVKVSCKASGGTFSDNDFSWVRQAPGQGLEWMGAIVAVVRTETYAQKFQDRVKITADISTRTTYMELSSLRSEDTAVYYCARRLMSAISGPGAPLLMWGQGTLVTVSS
VL: QSALTQPRSVSGSPGQSVTISCTGTSSDVGGYNYVSWYQQHPGKAPKLMIYDVSERPSGVPDRFSGSKSGNTASLTISGLQAEDEADYYCFSYTSSDTLEIFGGGTKLTVL
notes: also called anti-EGFR antibody clone QD6
B2: no binding (tested: 10 ug/ml) [1]; no binding (tested: 10 ug/ml) [2]; no binding (tested: 10 ug/ml) [4]. For the same binder, the Kd [5] was 4.4 nM, the koff [5] was 0.000735 s⁻¹ and the kon [5] was 167000 M⁻¹ s⁻¹. It also gave a Kd [6] of 2 nM, a koff [6] of 0.000292 s⁻¹ and a kon [6] of 148000 M⁻¹ s⁻¹. For the same binder, the Kd [7] was 2.5 nM, the koff [7] was 0.000288 s⁻¹ and the kon [7] was 114000 M⁻¹ s⁻¹. B2: no binding (tested: 66 nM) [12]; no binding (tested: 10 ug/ml) [8]; no binding (tested: 10 ug/ml) [9]. B2: no binding (tested: 10 ug/ml) [10]; no binding (tested: 10 ug/ml) [11].

B3: B09-57 IgG (antibody, V domains shown)
VH: QVQLVQSGAEVKKPGASVKVSCKASGYTFTDYYIHWVRQATGQGLEWMGWMNPNSGNTGYAQKFQGRVTMTRDTSISTAYMELSSLRSEDTAVYYCARGQGYTHSWGQGTMVTVSS
VL: DIQMTQSPSTLSASVGDRVTITCRASEGIYHWLAWYQQKPGKAPKLLIYKASSLASGVPSRFSGSGSGTEFTLTISSLQPDDFATYYCQQYSNYPPTFGGGTKLEIK
notes: also called B09-GL; cMET IgG B09
B3: no binding (tested: 10 ug/ml) [1]; no binding (tested: 10 ug/ml) [2]; no binding (tested: 10 ug/ml) [13]. For the same binder, the binding result [4] was “no binding (tested: 10 ug/ml)”, the Kd [14] was 1.9 nM and the koff [14] was 0.00194 s⁻¹. For the same binder, the kon [14] was 1.04e+06 M⁻¹ s⁻¹, the Kd [15] was 1.6 nM and the koff [15] was 0.000882 s⁻¹. The kon [15] was 563000 M⁻¹ s⁻¹, the binding result [16] was “no binding (tested: 500 nM EGFR)” and the binding result [8] was “no binding (tested: 10 ug/ml)”. B3: no binding (tested: 10 ug/ml) [17]; no binding (tested: 10 ug/ml) [10]; no binding (tested: 10 ug/ml) [11].
